Here are results for one molecule from publication PMC2673439.

Positions count from the first letter of the chain named.

Series [1] deals with T1, tvMyb1(35-141) (Trichomonas vaginalis, UniProt Q58HP2 35-141).
T1 sequence: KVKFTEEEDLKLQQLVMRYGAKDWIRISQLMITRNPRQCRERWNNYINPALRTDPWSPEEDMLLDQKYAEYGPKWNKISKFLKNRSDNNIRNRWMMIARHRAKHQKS
The experiment in a line: SPR. (In general: SPR reads the build-up and loss of mass on a sensor chip optically.)

The target of series [2] is T2, tvMyb1(35-141) T67A (Trichomonas vaginalis, UniProt Q58HP2 35-141, T67A).
T2 sequence: T1 sequence with T33A
The series is described as follows: SPR.

B1: MRE-1/MRE-2r 16-bp duplex, 5'-biotin (dsDNA)
DNA 1: AAGATAACGATATTTA
DNA 2: TAAATATCGTTATCTT
By Kd is commonly meant the equilibrium constant for the complex coming apart. In series [1], B1 gave a Kd of 1.24 nM. Moreover, the binding result in series [2] was “binds”.
